Measured values: publication PMC10011135, “Molecular identification and physiological functional analysis of NtNRT1.1B that mediated nitrate long-distance transport and improved plant growth when overexpressed in tobacco” (Frontiers in Plant Science, 2023)

Substrate: O=[N+]([O-])O
Experiment: cells, lysate or membranes
Set-up: species or system Nicotiana tabacum
Conditions: whole roots of 2-day N-starved tobacco plants (wild-type K326 background subtracted); 5–500 μM nitrate; labelled compound (15N)

B1: NtNRT1.1B (Nicotiana tabacum) (protein)
chain: MALPETQQDSKALPDAWDYKGRPALRSSSGGWASGAMILGVEAVERLTTLGIAVNLVTYLTGTMHLGNATAANNVTNFLGTSFMLTLFGGFVADTFLGRYLTIGIFATVQAMGVTILTISTIIPSLRPPKCEQVGSSSCIPANSKQLMVLYIALYMTALGTGGLKSSVSGFGTDQFDDADKKEKGQMIKFFDWFFFFINVGSLGAVTVLVYIQDNLGREWGYGICACAIVIGLVVFLSGTRKYRFKKLVGSPLTQIASVIVAAWKKRHLELLSDSSLLFEIDDIFGEGNKKNKQKLPHSKEYRFLDKAAIKEDHDLESNGTNVVINKWKLATLTDVEEVKLLIRMLPTWATTIMFWTVYAQMTTFSVSQATTMDRHIGTFEIPPASLTVFFVGSILLTVIFYDRVIVPICRRFMNKPHGLTPLQRIFTGLVLSILAMIAAALTEVKRLKVAHLHGLTNDANATIPLSVFWLVPQFLLVGAGEAFTYIGQLDFFLRECPKGMKTMSTGLFLSTLALGFFFSSILVTIVHVVTGTTNPWLADNLNQGRLYDFYWLLAILSVLNLMFFLYFSRKYVYKEKRLAEMGIELEDDGPVCH
notes: full-length untagged ORF (1,785 bp, 594 residues) under CaMV 35S promoter, overexpressed in tobacco K326 (line L1); formerly named NtNRT1.2 (Liu et al., 2018)
**Q.** B1 was tested. Which Km did it give?
**A.** The Km was 29.05 ± 3.34 µM.
